T1: rat IL-23R extracellular domain (ECD) protein (rat)
T1 construct: also called rat IL-23R ECD; F1LX96 amino acids 24-354
T1 chain: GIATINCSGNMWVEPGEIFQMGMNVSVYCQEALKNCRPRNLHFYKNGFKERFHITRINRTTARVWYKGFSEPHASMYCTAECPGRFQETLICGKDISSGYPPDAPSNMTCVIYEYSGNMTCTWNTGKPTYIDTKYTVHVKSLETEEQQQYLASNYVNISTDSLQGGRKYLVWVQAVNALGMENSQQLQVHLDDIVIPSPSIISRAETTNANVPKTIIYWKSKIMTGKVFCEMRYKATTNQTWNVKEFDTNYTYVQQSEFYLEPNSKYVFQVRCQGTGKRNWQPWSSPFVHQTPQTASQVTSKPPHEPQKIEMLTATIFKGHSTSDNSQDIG

T2: Recombinant human IL-23 receptor (IL-23R) extracellular domain (ECD) protein (human, UniProt Q5VWK5 24-355)
T2 construct: also called human IL-23R ECD; hu IL-23R ECD
T2 sequence: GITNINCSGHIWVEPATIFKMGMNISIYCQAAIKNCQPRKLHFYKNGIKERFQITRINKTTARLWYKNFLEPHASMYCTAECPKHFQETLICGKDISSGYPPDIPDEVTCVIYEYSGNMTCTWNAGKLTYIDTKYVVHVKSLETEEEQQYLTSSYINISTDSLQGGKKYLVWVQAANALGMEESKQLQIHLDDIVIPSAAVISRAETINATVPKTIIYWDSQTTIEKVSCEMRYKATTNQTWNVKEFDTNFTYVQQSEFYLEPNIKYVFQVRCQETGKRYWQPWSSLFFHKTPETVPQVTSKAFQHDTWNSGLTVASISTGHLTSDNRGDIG


Assays:
[1] = target: T1, rat IL-23R extracellular domain (ECD) …; test: SPR Biacore 8K, supernatant
Experimental: Affinity by SPR using Biacore 8K. Affinity measurements using Surface Plasmon Resonance (SPR) were performed using a Biacore 8K system (Cytiva). […] Approximately 9000-10000 RU (response units) of mAbs were immobilized. The kinetic experiments were performed at 25° C. in running buffer 1× of (HBS-P+ Buffer 10× (Cytiva #BR100671)+100 μg/ml BSA). To perform kinetic experiments, approximately 150 RU of mAbs were captured followed by injections of human IL-23R or rat IL-23R at concentrations ranging from 0.8 nM to 500 nM (in a 5-fold serial dilution). The association phase was monitored for 3 minutes at 50 μL/min, then followed by 30 minutes of buffer flow (dissociation phase). […] The collected data were processed using Biacore insight Evaluation software (Version 3.0.12.15655). The kinetic analysis of the data was performed using a Langmuir 1:1 binding model. The result for each mAb was reported in the format of Ka (On-rate), Kd (Off-rate) and KD (equilibrium dissociation constant).

[2] = target: T2, Recombinant human IL-23 receptor …; test: SPR Biacore 8K, supernatant, analysis 1
Summary of the method: (§1)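 Kinetics fitted to a 1:1 Langmuir model gave on-rate, off-rate and KD. Human or rat IL-23R ECD flowed over captured mAbs (~150 RU) at 0.8–500 nM, 5-fold dilutions: 3 min binding at 50 μL/min, then 30 min buffer, 25 °C, HBS-P+ plus 100 μg/ml BSA.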

[3] = target: T2, Recombinant human IL-23 receptor …; test: SPR Biacore 8K, supernatant, analysis 2
Summary of the method: as §1

Row | Binder | binding result [1] | Kd [2] [nM] | koff [2] [s⁻¹] | kon [2] [M⁻¹ s⁻¹] | Kd [3] [nM] | koff [3] [s⁻¹] | kon [3] [M⁻¹ s⁻¹] | Kd [1] [nM] | koff [1] [s⁻¹] | kon [1] [M⁻¹ s⁻¹]
1 | I23RB30 (antibody, mouse IgG2a, kappa, V domains shown, mouse immunization; mouse IgG2a/kappa) VH: not shown VL: DIVLTQSQRFMSTSVGDRVSITCKASQNIRTAVAWYQQKPGQSPKALIYLPSNRHTGVPDRFTGSGSGTDFTLTISNVQSEDLADYFCLQHWNYPLTFGAGTKLELKR | – | 46.2 | 0.0101 | 220000 | 35.9 | 0.00763 | 212000 | 306 | 0.00909 | 29800
2 | I23RB58 (antibody, mouse IgG2a, kappa, V domains shown, mouse immunization; mouse IgG2a/kappa) VH: EVKLVESGGGLVKPGGSLKLSCAASGFSFIIYTMSWVRQTPEKRLEWVAYITSGGGITYYPDSVKGRFTISRDNARNTLYLQMSSLRSEDTAMYYCARHEGDYYDDYYRIGYAMDYWGQGTSVTVSS VL: DIVMTQTPASLAVSLGQRATISCRASESVDSYGNSFMHWYQQKPGQPPKLLIYRASNLESGIPARFSGSGSRTDFTLTINPVEADDVATYYCQQSNEDPLTFGAGTKLEMKR | no binding (tested: 500 nM) | 16.2 | 0.00532 | 328000 | 22.5 | 0.00523 | 233000 | – | – | –
3 | I23RB56 (antibody, mouse IgG2a, kappa, V domains shown, mouse immunization; mouse IgG2a/kappa) VH: EVKLVESGGGLVKPGGSLKLSCAASGFTFSSYAMSWVRQTPEKRLEWVAAINSNDGSTYYPDTVKDRFTISRDNAKNTLYLQMSSLRSEDTALYYCARHFLYFSNFYYFDYWGQGTTLTVSS VL: DIVMTQSPKFLLVSAGDRVTITCKASQSVSNDVAWYQQKPGQSPKLLIYYASNRYTGVPDRFTGSGYGTVFTFTISTVQAEDLAVYFCQQDYSSPFTFGSGTKLEIKR | – | 68.4 | 0.0115 | 168000 | 25.5 | 0.00898 | 352000 | 715 | 0.0642 | 89700
4 | I23RB36 (antibody, mouse IgG2a, kappa, V domains shown, mouse immunization; mouse IgG2a/kappa) VH: QIQLVQSGAELVKPGASVKLSCTTSGFNIKDTYIHWMKQRPEQGLEWIGRIDPANGNTIYASKFQGKATLTTDTSSNTAYMLLSSLTSGDTAVYYCTRGTSWFAYWGQGTTVTVSS VL: DIVMTQSPKSMSMSVGERVTLSCKASENVGTSVSWFQQKPEQSPKLLIYGASNRYTGVPDRFTGSGSATDFTLTISSVQAEDLADYHCGQSYSYPRTFGGGTKLEIKR | no binding (tested: 500 nM) | 13.7 | 0.00118 | 86400 | 2.18 | 0.00129 | 592000 | – | – | –
5 | I23RB39 (antibody, mouse IgG2a, kappa, V domains shown, mouse immunization; mouse IgG2a/kappa) VH: EVQLQQSGPELVKPGAPVKISCKASGYTFTNYYIHWVKQRPGQGLEWIGYIYPGNGGTAYNQKFKDKATLTADNPSSTAYMQLSSLTSEDSAVYFCARSRGGSRNYFDYWGQGTTLTVSS VL: DIQMTQSHKFMSTSVGDRVSITCKASQDVSTAVAWYQQKPGQSPKLLIYSAFYRYTGVPDRFTGSGSGTDFTFTISSVQAEDLAVYYCQQHYSSPRTFGAGTKLELKR | no binding (tested: 500 nM) | 32 | 0.00739 | 231000 | 14.9 | 0.00716 | 482000 | – | – | –
6 | I23RB61 (antibody, mouse IgG2a, kappa, V domains shown, mouse immunization; mouse IgG2a/kappa) VH: DVQLQESGAELVKPGASVKLSCKSFDYTFTSFDINWMKQRPGQGLEWIGWIFPGSGTTNYNEKFKGKATLTADKSSSTAYMHLTSLTSEDSAVYFCARRLTGTRYFDVWGTGTTLTVSS VL: DIQMTQSHKFLSTSVGDRITITCKASQDVITAVAWYQQKSGQSPKLLIYWASTRHTGVPDRFTGSGSGTDYTLTISNVQAEDLALYYCQQHYTTPPTFGAGTKLELKR | no binding (tested: 500 nM) | 22.1 | 0.0101 | 459000 | 5.5 | 0.00195 | 355000 | – | – | –

Stronger by Kd [2], values ahead:

Row | binding result [1] | Kd [2] [nM] | koff [2] [s⁻¹] | kon [2] [M⁻¹ s⁻¹] | Kd [3] [nM] | koff [3] [s⁻¹] | kon [3] [M⁻¹ s⁻¹] | Kd [1] [nM] | koff [1] [s⁻¹] | kon [1] [M⁻¹ s⁻¹] | Binder
7 | no binding (tested: 500 nM) | 13.3 | 0.0013 | 98200 | 18.9 | 0.00151 | 79800 | – | – | – | I23RB188 (antibody, mouse IgG2a, kappa, V domains shown, mouse immunization; mouse IgG2a/kappa) VH: QIQLVQSGPELKKPGETVKISCKASGYTFTNYGMNWVKQAPGKGLKWMGWINTYTGAPTYADDFKGRFAFSLETSASTAYLQINNFKNEDTATYFCARGNGYPYYYGINYWGQGTSVTVSS VL: DVQMIQSPSSLSASLGERVSLTCRASQEISGNLSWLQQKPDGTIKRLIYAASTLDSGVPKRFSGSRSGSDYSLTISSLESEDFADYYCLQYASYPWTFGAGTRLEIKR
8 | no binding (tested: 500 nM) | 11.7 | 0.00378 | 322000 | 13.7 | 0.00293 | 213000 | – | – | – | I23RB73 (antibody, mouse IgG2a, kappa, V domains shown, mouse immunization; mouse IgG2a/kappa) VH: EVQLQQSGAELVKPGASVKISCKASGYTFTDHAIHWVKQRPEQGLEWIGYISLGNGDIKYSEKFRGKATLTADKTSNTAYMQLNSLTSEDSAVYFCKRSRVLRWTTYWYFDVWGAGTSVTVSS VL: DIVMTQSHKFMSTSVGDRVSITCKASQDVSTAVAWYQQKPGQSPKLLIYWASTRLTGVPDRFTGSGSGTDYTLTISSVQAEDLALYYCQQYYNTPLTFGAGTKLELKR
9 | no binding (tested: 500 nM) | 11.4 | 0.00372 | 325000 | 18.7 | 0.00416 | 223000 | – | – | – | I23RB27 (antibody, mouse IgG2a, kappa, V domains shown, mouse immunization; mouse IgG2a/kappa) VH: QVQLKESGPDLVQPSQTLSLTCTVSGFSLTSYGVHWVRQPPGKGLEWVGTLGWDDKKSYNSALKSRLSISRDTSKSQVFLKLSSLQTEDTAMYYCTKEDVSYAMDFWGQGTTLTVSS VL: DIQMTQSPTSLAVSLGQRATISCRASESVEYYGTSLMHWYQQKPGQPPKLLIYAASNVESGVPARFSGSGSGTDFSLNIHPVEEEDIAMYFCQQGKKVPWTFGAGTKLEMKR
10 | no binding (tested: 500 nM) | 4.67 | 0.00247 | 529000 | 34.4 | 0.0136 | 397000 | – | – | – | I23RB82 (antibody, mouse IgG2a, kappa, V domains shown, mouse immunization; mouse IgG2a/kappa) VH: QVQLKESGPGLVAPSQSLSITCTVSGFSLTNYALHWFRQSPGKGLEWLGVIWSDGSTDYNSPFISRLSISKDNSKSQVFFKMNSLQADDTAIYYCARSRSNYGRWYFDVWGAGTTLTVSS VL: QIVLSQSHKFMSTSVGDRVSITCKASQDVSTAVAWYQQKPGQSPKLLIYSAFYRYTGVPDRFTGSGSGTDFTFTISSVQAEDLAVYYCQQHYSTPYTFGGGTKLEIKR
11 | no binding (tested: 500 nM) | 1.54 | 0.00214 | 1.39e+06 | 18 | 0.01 | 556000 | – | – | – | I23RB77 (antibody, mouse IgG2a, kappa, V domains shown, mouse immunization; mouse IgG2a/kappa) VH: DVQLQESGPGLVAPSQSLSITCTVSGFSLSRYSVHWVRQPPGKGLEWLGMIWGSGSTDYNSALKSRLSINKDNSKSQVFLKMNSLQTDDTAMYYCARVYYGGSPYAMDYWGQGTTVTVSS VL: DIVMTQSPASLALSLGQRATISCRASESVDSYGNSFMHWYQQKPGQPPKLLIYLASNLESGVPARFSGSGSRTDFTLTIDPVEADDAAIYYCQQNNEEPNTFGAGTKLEMKR
12 | no binding (tested: 500 nM) | 0.731 | 0.000218 | 298000 | 0.466 | 0.000169 | 362000 | – | – | – | I23RB60 (antibody, mouse IgG2a, kappa, V domains shown, mouse immunization; mouse IgG2a/kappa) VH: DVQLQESGPELVKPGDSVKMSCEASGYTFTDYYIDWVKQSHGKSLEWIGYIYPNNGGISFNQKFEGKATLTVDKSSSTAYMELHSLTSEDSAVYYCAREKLRGRDYWGQGTTLTVSS VL: DIVMTQSTSSLSASLGDRVTISCRASQDIRNNLNWYQQKPDGTVKLLIFYSSRLHSGVPSRFSGSGSGTDYSLTISNLEQEDIATYFCQQGHTLPWTFGAGTKLELKR

Reference: patent US20250179196A1 (Janssen / Centocor, published 2025)
